The target in data set [1] is T1, LmGSTu1 (Locusta migratoria, UniProt F4YUI9).
T1 construct: E. coli BL21 (DE3)
T1 sequence (F4YUI9 1-214): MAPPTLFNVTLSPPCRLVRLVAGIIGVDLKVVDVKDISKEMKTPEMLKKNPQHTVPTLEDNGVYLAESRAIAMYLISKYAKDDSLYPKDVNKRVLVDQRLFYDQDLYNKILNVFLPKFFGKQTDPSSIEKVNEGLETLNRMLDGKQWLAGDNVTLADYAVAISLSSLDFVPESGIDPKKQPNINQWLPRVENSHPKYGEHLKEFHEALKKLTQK
In words: inhibition of CDNB-GSH conjugation, absorbance […] nm. Format: biochemical. Conditions: read-out: I50.

Data set [2] deals with T2, LmGSTd1 (Locusta migratoria, UniProt E7BTM5).
T2 construct: E. coli JM109
T2 sequence (E7BTM5 1-218): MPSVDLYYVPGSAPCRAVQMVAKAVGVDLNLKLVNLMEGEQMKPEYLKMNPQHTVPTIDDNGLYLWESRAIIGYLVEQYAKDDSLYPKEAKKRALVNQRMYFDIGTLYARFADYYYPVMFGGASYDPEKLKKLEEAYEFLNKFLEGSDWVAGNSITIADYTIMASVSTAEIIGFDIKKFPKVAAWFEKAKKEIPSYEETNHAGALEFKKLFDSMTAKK
The description is as above. In kind it is biochemical. Conditions: read-out: I50.

In data set [3] the target is T3, LmGSTs5 (Locusta migratoria, UniProt F4YUJ4).
T3 construct: E. coli JM109
T3 sequence (F4YUJ4 1-202): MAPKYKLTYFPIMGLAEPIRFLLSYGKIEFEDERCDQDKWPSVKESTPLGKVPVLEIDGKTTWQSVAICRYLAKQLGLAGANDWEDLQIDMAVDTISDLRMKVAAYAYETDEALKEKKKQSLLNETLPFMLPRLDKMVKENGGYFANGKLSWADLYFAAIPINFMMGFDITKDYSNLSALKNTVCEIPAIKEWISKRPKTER
The data set is described as above. Format: biochemical. Conditions: read-out: I50.

Data set [4] deals with T4, LmGSTt1 (Locusta migratoria, UniProt F4YUJ7).
T4 construct: E. coli BL21 (DE3)
T4 sequence (F4YUJ7 1-231): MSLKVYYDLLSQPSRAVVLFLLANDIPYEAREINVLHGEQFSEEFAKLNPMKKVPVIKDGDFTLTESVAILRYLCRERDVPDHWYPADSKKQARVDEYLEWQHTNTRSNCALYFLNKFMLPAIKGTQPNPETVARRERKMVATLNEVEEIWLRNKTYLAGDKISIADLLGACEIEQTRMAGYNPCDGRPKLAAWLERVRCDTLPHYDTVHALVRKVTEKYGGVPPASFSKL
Described as above. In kind it is biochemical. The conditions noted are these: read-out: I50.

For data set [5], the target named is T4, LmGSTt1. Kind of data set: GSH conjugation, absorbance […] nm, non-linear regression. Format: biochemical. Conditions: read-out: CDNB / Km; 5 mM GSH, pH 7.5, 28°C; apparent.
Data set [6] addresses T3, LmGSTs5. The description is as above. Format: biochemical. Conditions: read-out: CDNB / Km; 5 mM GSH, pH 7.5, 28°C; apparent.
Data set [7] concerns the target T2, LmGSTd1. Described as above. Conditions: read-out: CDNB / Km; 5 mM GSH, pH 7.5, 28°C; apparent. In kind it is biochemical.
Data set [8] addresses T1, LmGSTu1. The description is as above. Format: biochemical. Conditions: read-out: CDNB / Km; 5 mM GSH, pH 7.5, 28°C; apparent.
Substrate in data set [9]: O=[N+]([O-])c1ccc(Cl)c(Cl)c1
Kind of data set: purified protein. Conditions: 5 mM GSH, pH 7.5, 28°C, apparent.

Substrate in data set [10]: O=[N+]([O-])c1ccc(CCl)cc1
In words: purified protein. The conditions noted are these: 5 mM GSH, pH 7.5, 28°C, apparent.

Substrate in data set [11]: O=[N+]([O-])c1ccc(Cl)c(Cl)c1
In words: purified protein. In kind it is biochemical, Locusta migratoria. Conditions: 5 mM GSH, pH 7.5, 28°C, apparent.

Substrate in data set [12]: O=[N+]([O-])c1ccc(CCl)cc1
Kind of data set: purified protein. Format: biochemical, Locusta migratoria. Conditions: 5 mM GSH, pH 7.5, 28°C, apparent.

Where [13] appears, read: 2 mM CDNB, 5 mM GSH, 0.1 M phosphate pH 7.5, 28°C.

Read-outs that look alike come from different tables or passages of the source.

Regarding reactive blue, the IC50 in data set [1] (setting [13]) worked out at 3.4 µM; in data set [2] (setting [13]), 4.58 µM; in [3] (setting [13]), 0.98 µM; in data set [4] (setting [13]) it was 12.4 µM.
Turning to `O=[N+]([O-])c1ccc(Cl)c([N+](=O)[O-])c1` [CDNB, 1-chloro-2,4-dinitrobenzene], the Km was determined as 4730 ± 350 µM in [5], 1170 ± 290 µM in data set [6], 500 ± 25 µM in [7] and 250 ± 25 µM in [8].
As to `C=C(CC)C(=O)c1ccc(OCC(=O)O)c(Cl)c1Cl` [ethacrynic acid], the IC50 in [1] turned out to be 3.27 µM; in data set [2], 2.2 µM; in data set [3], 33.8 µM; in [4] it was 4.7 µM.

B1: LmGSTu1 (Locusta migratoria) (protein)
chain: T1 sequence (F4YUI9 1-214)
In the case of B1, the Km stood at 730 ± 64 µM in [9] and 1580 ± 170 µM in data set [10]. Also, the maximum rate (Vmax) was determined as 0.00098 µmol/min/mg in [9] and 0.00677 µmol/min/mg in [10].

B2: LmGSTs5 (Locusta migratoria) (protein)
chain: T3 sequence (F4YUJ4 1-202)
On to B2, for which the Km turned out to be 1730 ± 240 µM in data set [9] and 470 ± 83 µM in [10]. Also, the Vmax in [9] came to 0.00741 µmol/min/mg; in data set [10] it was 0.156 µmol/min/mg.

B3: LmGSTd1 (Locusta migratoria) (protein)
chain: T2 sequence (E7BTM5 1-218)
notes: E. coli JM109
Consider B3, for which the Km was found to be 1000 ± 87 µM in data set [11] and 6380 ± 570 µM in data set [12]. Besides, the maximal velocity (Vmax) in [11] is 0.0004 µmol/min/mg; in [12], 0.049 µmol/min/mg.

B4: LmGSTt1 (Locusta migratoria) (protein)
chain: T4 sequence (F4YUJ7 1-231)
Regarding B4, in data set [10], the Km worked out at 7850 ± 1080 µM and the Vmax is 0.00143 µmol/min/mg.
